# Measurements published in ChEMBL document CHEMBL1139472, “Synthesis of N-{4-[(2,4-diamino-5-methyl-4,7-dihydro-3H-pyrrolo[2,3-d]pyrimidin-6-yl)thio]benzoyl}-L-glutamic acid and N-{4-[(2-amino-4-oxo-5-methyl-4,7-dihydro-3H-pyrrolo[2,3-d]pyrimidin-6-yl)thio]benzoyl}-L-glutamic acid as dual inhibitors of dihydrofolate reductase and thymidylate synthase and …” (J Med Chem, 2005).
# B1: Folylpolyglutamate synthase, mitochondrial (Homo sapiens), Q05932 (protein)
# chain: MSRARSHLRAALFLAAASARGITTQVAARRGLSAWPVPQEPSMEYQDAVRMLNTLQTNAGYLEQVKRQRGDPQTQLEAMELYLARSGLQVEDLDRLNIIHVTGTKGKGSTCAFTECILRSYGLKTGFFSSPHLVQVRERIRINGQPISPELFTKYFWRLYHRLEETKDGSCVSMPPYFRFLTLMAFHVFLQEKVDLAVVEVGIGGAYDCTNIIRKPVVCGVSSLGIDHTSLLGDTVEKIAWQKGGIFKQGVPAFTVLQPEGPLAVLRDRAQQISCPLYLCPMLEALEEGGPPLTLGLEGEHQRSNAALALQLAHCWLQRQDRHGAGEPKASRPGLLWQLPLAPVFQPTSHMRLGLRNTEWPGRTQVLRRGPLTWYLDGAHTASSAQACVRWFRQALQGRERPSGGPEVRVLLFNATGDRDPAALLKLLQPCQFDYAVFCPNLTEVSSTGNADQQNFTVTLDQVLLRCLEHQQHWNHLDEEQASPDLWSAPSPEPGGSASLLLAPHPPHTCSASSLVFSCISHALQWISQGRDPIFQPPSPPKGLLTHPVAHSGASILREAAAIHVLVTGSLHLVGGVLKLLEPALSQ
# Assays:
# [1] = substrate: Cc1c(Sc2ccc(C(=O)N[C@@H](CCC(=O)O)C(=O)O)cc2)[nH]c2nc(N)[nH]c(=O)c12; assay: Activity of human recombinant cytosolic FPGS
# [2] = substrate: Nc1nc(N)c2nc(CNc3ccc(C(=O)N[C@@H](CCC(=O)O)C(=O)O)cc3)cnc2n1; assay: (§1) Activity of human recombinant cytosolic FPGS relative to aminopterin
# [3] = substrate: Cc1c(Sc2ccc(C(=O)N[C@@H](CCC(=O)O)C(=O)O)cc2)[nH]c2nc(N)[nH]c(=O)c12; assay: as §1
protein,measurement,setting,value
B1,Km,[1],5.1 µM
same,Vmax,[2],1
same,Vmax,[3],0.29
